Test results from patent publication US20190092852A1 (Genentech, published 2019).
Read-outs that look alike come from different tables or passages of the source. Blank lines part the entries; values can stand above or below the binder they belong to.

Key:
[1] = biological target: T1, human IL-33 (R&D Systems, #3625-IL-010/CF) (human, UniProt O95760 112-270); experiment: cell-based or functional assay
T1 sequence (looked up): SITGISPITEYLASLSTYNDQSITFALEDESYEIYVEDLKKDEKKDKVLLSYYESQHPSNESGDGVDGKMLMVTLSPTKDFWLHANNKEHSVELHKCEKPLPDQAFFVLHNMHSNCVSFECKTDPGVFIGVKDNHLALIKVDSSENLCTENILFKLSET

[2] = biological target: T2, biotinylated cyno IL-33 (cynomolgus monkey, UniProt A0A2K5W3I1 112-269, biotin-labeled with EZ-LINK NHS-PEG4-Biotin); experiment: competitive ELISA, biotin-cyIL-33 to coated hST2-Fc
T2 construct: also called biotin-cyIL-33
T2 sequence: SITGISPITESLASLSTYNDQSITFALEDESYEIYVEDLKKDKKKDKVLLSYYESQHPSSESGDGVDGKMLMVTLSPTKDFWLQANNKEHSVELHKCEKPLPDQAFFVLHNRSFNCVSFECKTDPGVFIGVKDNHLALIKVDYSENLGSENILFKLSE
Description: (§1) The ability of the anti-IL-33 antibody 10C12.38.H6.87Y.58I IgG4 and each anti-IL-33 antibody listed in Table 5 (RG1-RG20) to block either human IL-33 or cyno IL-33 binding to human ST2 receptor was tested in a competitive binding ELISA. Briefly, 1 μg/ml of recombinant human ST2-Fc chimera protein prepared in coating buffer (50 mM sodium carbonate, pH 9.6) was coated on a 384-well MAXISORP® plate (Nalgene Nunc International; Rochester, N.Y.) and incubated overnight at 4° C. On the next day, non-specific binding was blocked with PBS containing 0.5% (w/v) solution of bovine serum albumin (BSA). Fixed concentrations of biotinylated human or cyno IL-33 prepared in assay buffer (25 mM PBS, pH 7.2, 0.1% BSA, 0.05% TWEEN®-20) were mixed with an equal volume of serially-diluted anti-IL-33 antibodies or assay buffer alone and incubated for 1 h at room temperature. The final assay concentrations of biotinylated human IL-33 or cyno IL-33 were 20 pM and 45 pM, respectively, and the final assay concentration of each antibody ranged from 0-300 nM. The pre-mixed solutions were added to the ST2-Fc coated plate and incubated for 1 h at room temperature. The binding of biotinylated IL-33 to coated ST2-Fc was detected by the sequential addition of Streptavidin Poly-HRP80 (Fitzgerald; Buckinghamshire, UK) and 3,3′,5,5′-tetramethyl benzidine (TMB) Microwell Peroxidase Substrate System (KPL; Gaithersburg, Md.). The absorbance (450 nm) was recorded using a […] ASCENT® plate reader (Thermo Scientific; Rockford, Ill.). The binding activity (%) of biotin-IL-33 to ST2 in the presence of anti-IL-33 was plotted as a function of antibody concentration. The data generated were fitted to a four-parameter equation to determine IC₅₀ values for each antibody (FIGS. 25A and 25B) using Prism software (Graphpad Software; La Jolla, Calif.). The maximum blocking (%) of each antibody was calculated as the ratio of the reduction in signal measured in the presence of antibody relative to the difference between the signal with IL-33 alone and background measurements.

[3] = biological target: T1, human IL-33 (R&D Systems, …); experiment: cell-based or functional assay; remark: listed apart in the source
[4] = biological target: T3, cynomolgus monkey N-terminal 6-His-tagged and C-terminal Avi-tagged IL-33 (S112-T270) (cynomolgus monkey); experiment: cell-based or functional assay
T3 chain: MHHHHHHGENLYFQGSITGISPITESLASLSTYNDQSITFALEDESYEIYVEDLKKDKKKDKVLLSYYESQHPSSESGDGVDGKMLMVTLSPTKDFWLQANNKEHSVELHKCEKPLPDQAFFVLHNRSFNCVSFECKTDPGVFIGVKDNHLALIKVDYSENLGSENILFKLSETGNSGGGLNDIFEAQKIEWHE

[5] = biological target: T4, biotinylated human IL-33 (human, UniProt O95760 112-270, biotin-labeled with EZ-LINK NHS-PEG4-Biotin); experiment: competitive ELISA, biotin-huIL-33 to coated hST2-Fc
T4 construct: also called biotin-huIL-33
T4 sequence (looked up): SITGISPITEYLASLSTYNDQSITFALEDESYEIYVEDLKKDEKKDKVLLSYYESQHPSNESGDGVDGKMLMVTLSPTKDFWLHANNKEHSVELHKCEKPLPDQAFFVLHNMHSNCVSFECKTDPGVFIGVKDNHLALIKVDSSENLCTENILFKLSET
Description: as §1

[6] = biological target: T1, human IL-33 (R&D Systems, …); experiment: cell-based or functional assay; remark: listed apart in the source
[7] = biological target: T1, human IL-33 (R&D Systems, …); experiment: cell-based or functional assay; remark: listed apart in the source
[8] = biological target: T1, human IL-33 (R&D Systems, …); experiment: cell-based or functional assay; remark: listed apart in the source
[9] = biological target: T1, human IL-33 (R&D Systems, …); experiment: cell-based or functional assay; remark: listed apart in the source
[10] = biological target: T5, cyno IL-33 N-His (cynomolgus monkey); experiment: SPR Biacore T200, 25 C
T5 chain: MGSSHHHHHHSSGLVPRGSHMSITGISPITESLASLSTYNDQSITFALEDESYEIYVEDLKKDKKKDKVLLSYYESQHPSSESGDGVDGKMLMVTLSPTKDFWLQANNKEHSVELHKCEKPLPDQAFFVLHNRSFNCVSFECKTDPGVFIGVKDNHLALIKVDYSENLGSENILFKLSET
Procedure, shortened: (§2)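 Antibodies captured via anti-Fc on CM5 chip; IL-33 injected at 3.7–100 nM (three-fold series), 4 min association, 10 min dissociation, 30 μl/min, ADA pH 7.4 buffer with 0.15 M NaCl, EDTA, Tween-20, at 25 °C or 37 °C. KD = koff/kon from 1:1 Langmuir fit; t1/2 = ln(2)/(60*koff).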

[11] = biological target: T3, cynomolgus monkey N-terminal …; experiment: cell-based or functional assay
[12] = biological target: T6, human ST2L on HEK-BLUE IL-33/IL-1beta cells (human, UniProt Q01638 19-556); experiment: cell-based or functional assay
T6 sequence: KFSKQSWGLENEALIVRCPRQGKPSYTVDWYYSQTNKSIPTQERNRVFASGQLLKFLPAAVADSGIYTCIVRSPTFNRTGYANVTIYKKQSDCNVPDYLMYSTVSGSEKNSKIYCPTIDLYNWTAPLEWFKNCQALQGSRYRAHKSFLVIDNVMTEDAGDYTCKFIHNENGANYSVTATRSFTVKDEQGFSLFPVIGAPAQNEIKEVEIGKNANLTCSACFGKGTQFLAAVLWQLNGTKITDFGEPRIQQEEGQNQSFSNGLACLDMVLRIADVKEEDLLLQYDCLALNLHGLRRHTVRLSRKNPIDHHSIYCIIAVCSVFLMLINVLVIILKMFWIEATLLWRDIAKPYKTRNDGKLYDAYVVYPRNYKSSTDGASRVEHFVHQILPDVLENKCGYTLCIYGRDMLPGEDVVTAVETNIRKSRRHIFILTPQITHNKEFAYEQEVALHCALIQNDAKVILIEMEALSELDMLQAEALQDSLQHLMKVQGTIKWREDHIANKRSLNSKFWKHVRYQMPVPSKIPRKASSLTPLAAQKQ

[13] = biological target: T5, cyno IL-33 N-His; experiment: SPR Biacore T200, 37 C
Procedure, shortened: as §2

[14] = biological target: T1, human IL-33 (R&D Systems, …); experiment: SPR Biacore T200, 25 C
Procedure, shortened: as §2

[15] = biological target: T1, human IL-33 (R&D Systems, …); experiment: SPR Biacore T200, 37 C
Procedure, shortened: as §2

B1: H1M9568N (antibody, IgG1, V domains shown)
VH: QVLLVQSGAEVKKPGATVKVSCKASGSTFTGYYMHWVRQAPGQGLEWMGWINPNNGGTNYAQKFQGRVTMTRDTSISTAYMELSRLRSDDTAVYYCARELRYNWKSWGQGTLVTVSS
VL: EIVLTQSPGTLSLSPGERVTLSCRASQSVGRPYLAWYQQIPGQAPRLLIYGASSRATDIPDRFSGNGSGTDFTLTISRLEPEDFAVYYCQQYDNSPYTFGQGTRLEIK
notes: also called RG3
IC50, IL-33-induced phospho-p38 in primary human basophils, 500 pM hIL-33 [1]: 4e-13 M
IC50 [2]: 77 nM
Maximum Blocking [2]: 45%
IC50; SEAP reporter (OD 620), HEK-BLUE IL-33/IL-1beta cells, 10 pM hIL-33 [3]: 1.1e-10 M
IC50; SEAP reporter (OD 620), HEK-BLUE IL-33/IL-1beta cells, 5 pM cyno IL-33 (5pM cIL-33-Nhis) [4]: 2.9e-08 M
IC50 [5]: 0.19 nM
Maximum Blocking [5]: 85%
IC50 (read off the curve) [6]: ~0.0004 nM
Ph-p38 MFI at 0.4 nM Ab (500 pM human IL-33, primary basophils) [7]: 88 MFI
Ph-p38 MFI at 2 nM Ab (500 pM human IL-33, primary basophils) [8]: 38 MFI
IC50 (read off the curve) [9]: ~0.0004 nM

B2: H1M9565N (antibody, V domains shown)
VH: QVTLKESGPVLVKPTESLTLTCSVSGFSLSNVRMGVSWIRQSPGKALEWLAHIFSNDEKSYTTSLKTRLTISKDTSRSQVVLTMTDMDPGDTATYYCARIRNLAFNYWGQGTLVTVSS
VL: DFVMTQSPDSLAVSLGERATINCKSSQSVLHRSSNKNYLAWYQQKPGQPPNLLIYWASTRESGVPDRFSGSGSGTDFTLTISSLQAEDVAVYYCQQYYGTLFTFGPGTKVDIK
IC50 [2]: 19 nM
Maximum Blocking [2]: 85%
Kd [10]: 2.98 nM
koff [10]: 0.000606 s⁻¹
kon [10]: 203000 M⁻¹ s⁻¹
t1/2 [10]: 19 min
HEK-BLUE SEAP reporter IC50 [11]: 6.1 nM

B5: H4H9629P (antibody, IgG4, V domains shown)
VH: EVQLVESGGGLVQPGGSLRLSCAASGFTFRSFAMSWVRQAPGKGLELVSDLRTSGGSTYYADSVKGRLTISRDNSKNTLYLQMNSLRAEDTAVYYCAKSHYSTSWFGGFDYWGQGTLVTVSS
VL: DIQMTQSPSSVSASVGDRVTITCRASQGFSSWLAWYQQKPGKAPKLLIYAASSLQSGVPSRFSGSGSGTDFTLTITNLQPEDFATYYCQQANSFPLTFGGGTKVEIK
notes: also called RG4
IC50, IL-33-induced phospho-p38 in primary human basophils, 500 pM hIL-33 [1]: 3.6e-13 M
IC50; SEAP reporter (OD 620), HEK-BLUE IL-33/IL-1beta cells, 10 pM hIL-33 [3]: 3.3e-11 M
Kd [14]: 0.559 nM
koff [14]: 0.000632 s⁻¹
kon [14]: 1.13e+06 M⁻¹ s⁻¹
t1/2 [14]: 18 min
Kd [10]: 54 nM
koff [10]: 0.0204 s⁻¹
kon [10]: 379000 M⁻¹ s⁻¹
t1/2 [10]: 1 min
IC50 [5]: 0.092 nM
Maximum Blocking [5]: 82%
IC50 (read off the curve) [6]: 0.0003 to 0.0004 nM
Kd [15]: 0.261 nM
koff [15]: 0.000738 s⁻¹
kon [15]: 2.82e+06 M⁻¹ s⁻¹
t1/2 [15]: 16 min
Kd [13]: 547 nM
koff [13]: 0.000502 s⁻¹
kon [13]: 916 M⁻¹ s⁻¹
t1/2 [13]: 23 min
Ph-p38 MFI at 0.4 nM Ab (500 pM human IL-33, primary basophils) [7]: 67 MFI
Ph-p38 MFI at 2 nM Ab (500 pM human IL-33, primary basophils) [8]: 38 MFI
IC50 (read off the curve) [9]: 0.0003 to 0.0004 nM

Results, then the binder that gave them:

EC50 (SEAP reporter OD 620, HEK-BLUE IL-33/IL-1beta cells) [12]: 0.004 nM
B3: Human IL-33 N-His Biotinylated (ligand)
ligand: MGSSHHHHHHSSGLVPRGSHMSITGISPITEYLASLSTYNDQSITFALEDESYEIYVEDLKKDEKKDKVLLSYYESQHPSNESGDGVDGKMLMVTLSPTKDFWLHANNKEHSVELHKCEKPLPDQAFFVLHNMHSNCVSFECKTDPGVFIGVKDNHLALIKVDSSENLCTENILFKLSET
modifications: biotinylated, sites not given

IC50; SEAP reporter (OD 620), HEK-BLUE IL-33/IL-1beta cells, 5 pM cyno IL-33 (5pM cIL-33-Nhis) [4]: 5.7e-08 M
Kd [10]: 2.73 nM
koff [10]: 0.000988 s⁻¹
kon [10]: 362000 M⁻¹ s⁻¹
t1/2 [10]: 12 min
Kd [13]: 6.72 nM
koff [13]: 0.00505 s⁻¹
kon [13]: 751000 M⁻¹ s⁻¹
t1/2 [13]: 2 min
HEK-BLUE SEAP reporter, fold weaker than 10C12.38.H6.87Y.58I IgG4 [11]: 14 fold
B4: H4H9675P (antibody, V domains shown)
VH: EVQLVESGGNLEQPGGSLRLSCTASGFTFSRSAMNWVRRAPGKGLEWVSGISGSGGRTYYADSVKGRFTISRDNSKNTLYLQMNSLSAEDTAAYYCAKDSYTTSWYGGMDVWGHGTTVTVSS
VL: DIQMTQSPSSVSASVGDRVTITCRASQGIFSWLAWYQQKPGKAPKLLIYAASSLQSGVPSRFSGSGSGTDFTLTISSLQPEDFAIYYCQQANSVPITFGQGTRLEIK

EC50 (SEAP reporter OD 620, HEK-BLUE IL-33/IL-1beta cells) [12]: 0.0098 nM
B6: Human IL-33 N-His C-Avi (ligand)
ligand: MHHHHHHGENLYFQGSITGISPITEYLASLSTYNDQSITFALEDESYEIYVEDLKKDEKKDKVLLSYYESQHPSNESGDGVDGKMLMVTLSPTKDFWLHANNKEHSVELHKCEKPLPDQAFFVLHNMHSNCVSFECKTDPGVFIGVKDNHLALIKVDSSENLCTENILFKLSETGNSGGGLNDIFEAQKIEWHE
